± gives the standard deviation of the averaged measurements.
System: Saccharomyces cerevisiae
Assay: protein stability index of tFT-peptide fusion (C-terminal peptide) (PSI (0-1 scale)); higher = more stable (slower turnover)
Details: genetic background: wild type; temperature: 30 C
Procedure: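 Multiplexed protein stability (MPS) profiling in S. cerevisiae. Random 12-aa peptides (tFT-X12 library) are fused to the C-terminus of a sfGFP-mCherry tandem fluorescent timer, after mCherry and a GGGS linker. Cells are FACS-sorted into 8 mCherry/sfGFP bins and deep-sequenced. The protein stability index (PSI) is the read-weighted bin average, scaled from 0 (unstable) to 1 (stable). Only peptides with >10 reads are reported; cells were grown at 30 °C in SC-His with glucose.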
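Also: PSI is a weighted mean of sequencing reads over stability bins, variants kept only with over 10 reads, mCherry proximal and sfGFP distal, peptide attached via GGGS linker.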

| Sequence | protein stability index |
| --- | --- |
| SSGFVWVGVCVG | 0.5 ± 0.0069 |
| PRPPPPSVARVP | 0.64711 ± 0.0003 |
| CDLISPAHLVLG | 0.678 ± 0.01 |
| AWVCSPSACGLV | 0.834 ± 0.089 |
| WFKSIREGKGSR | 0.68 ± 0.044 |
| VNLSNLRPCPTR | 0.707 ± 0.065 |
| CVGLGGPPGGCG | 0.603 ± 0.091 |
| GNRNGEFINTQI | 0.665 ± 0.027 |
| PSPRPPPSPPLP | 0.695 ± 0.037 |
| GLWAEGCGGEVV | 0.653 ± 0.0083 |
| LIIRTWEQILSP | 0.692 ± 0.058 |
| GAGLLRLWEVGG | 0.733 ± 0.049 |
| KERARNTKRGSD | 0.641 ± 0.08 |
| LPFFFPPFFITR | 0.532 ± 0.013 |
| DGCLTKPGQCHG | 0.646 ± 0.013 |
| RWGGGGSVSFWW | 0.712 ± 0.053 |
| VRPFTLLSSYSV | 0.644 ± 0.028 |
| ENNWILSIKEKT | 0.747 ± 0.02 |
| GWRAGGTGAPSR | 0.653 ± 0.041 |
| VWGIIQTDRMGR | 0.744 ± 0.017 |
| SPPHSLSSSCSL | 0.811 ± 0.05 |
| LACTGFPPPFPL | 0.675 ± 0.017 |
| WPKNSTNHSWKW | 0.744 ± 0.035 |
| IQANLPLLTNQE | 0.6631 ± 0.0017 |
| RVLKIIGFITYA | 0.56 ± 0.034 |

| Sequence | protein stability index |
| --- | --- |
| PSPPPAPPPHSP | 0.665 ± 0.022 |
| PLSPLHHCPLSP | 0.666 ± 0.039 |
| KEARKREHKQTN | 0.67 ± 0.094 |
| SPPLPRLSPLPN | 0.6863 ± 0.0012 |
| SRFSRLHPAFPV | 0.759 ± 0.014 |
| ANECYAEDREIR | 0.69 ± 0.027 |
| PPFPPPPRPADH | 0.741 ± 0.023 |
| DDFPNKHVEPKA | 0.658 ± 0.014 |
| TKKSKRKREQAE | 0.68 ± 0.026 |
| RFRYFSPLSTTS | 0.671 ± 0.027 |
| FPPPLPLSPPPP | 0.746 ± 0.085 |
| TICRKPTLMSPQ | 0.775 ± 0.061 |
| NPPSRLPRLPLH | 0.728 ± 0.043 |
| GLAYPAGALSLL | 0.684 ± 0.1 |
| VTREEALICSQP | 0.811 ± 0.13 |
| SLHSTPRPPAPG | 0.705 ± 0.063 |
| PPTPKHTPHDTT | 0.694 ± 0.031 |
| IGLFWSGFFYGV | 0.743 ± 0.038 |
| RSPTRHAPPRPV | 0.639 ± 0.095 |
| PTPPPPPSPFAL | 0.804 ± 0.15 |
| TDWLMQRILRPF | 0.718 ± 0.028 |
| GGRAWRWVARVG | 0.673 ± 0.045 |
| PSRSLSSPPSSR | 0.64 ± 0.019 |
| SPPPPSPRFPSP | 0.678 ± 0.017 |
| PDPPPRCRFLPL | 0.698 ± 0.044 |

| Sequence | protein stability index |
| --- | --- |
| KKKKKSKKKETR | 0.807 ± 0.11 |
| APPPLPPLPPSP | 0.727 ± 0.2 |
| GALVGFPAFFLL | 0.654 ± 0.011 |
| LCVLFVSKPTPE | 0.67 ± 0.019 |
| GVMTGGPPGGAG | 0.642 ± 0.04 |
| CPRRVAVAGETS | 0.697 ± 0.044 |
| RGNPLLWHSSPR | 0.657 ± 0.051 |
| SVSDPLPPRQTV | 0.721 ± 0.057 |
| VRGRGRQDVDGG | 0.699 ± 0.11 |
| LFGTGVRCGVCS | 0.637 ± 0.092 |
| CRISHPPLGGGS | 0.652 ± 0.02 |
| NDHEQGPTQARG | 0.669 ± 0.044 |
| FSAPPPPSPPLS | 0.721 ± 0.053 |
| WHFTPPPPPTSP | 0.715 ± 0.011 |
| PTPVAHSLSLRI | 0.637 ± 0.033 |
| SPSIRFILWGPI | 0.678 ± 0.041 |
| VVFGLESCDWRG | 0.669 ± 0.0093 |
| VSPGYWGPAPLC | 0.682 ± 0.016 |
| VLLGCRRAWVGF | 0.669 ± 0.018 |
| PLILRSLFIFPV | 0.641 ± 0.037 |
| SSIHSLRQVISI | 0.614 ± 0.051 |
| SRHFPLGTVHVP | 0.756 ± 0.065 |
| PPSLPSVRLSLS | 0.685 ± 0.027 |
| RHPLPHNLSPYP | 0.78 ± 0.0065 |
| VFGWAGVGGDCG | 0.674 ± 0.012 |

| Sequence | protein stability index |
| --- | --- |
| NVIVRVPFVLEE | 0.692 ± 0.059 |
| RKIKKRITREKM | 0.617 ± 0.082 |
| KSKIKKKKQTKR | 0.652 ± 0.051 |
| RCGRSVSCLATG | 0.696 ± 0.042 |
| WVLGGSWLRCRK | 0.726 ± 0.014 |
| PYHARPDRSLSG | 0.693 ± 0.035 |
| DSSYVYHFRCVS | 0.62055 ± 0.00019 |
| PLPPPPPLLPTC | 0.669 ± 0.037 |
| GSGVGSRARRGR | 0.695 ± 0.02 |
| KLNLKVRKRERP | 0.66971 ± 0.00065 |
| PPTPPTSHPSPR | 0.696 ± 0.027 |
| PGVAGSLSLLRR | 0.722 ± 0.097 |
| HPNKPTYLPSPY | 0.768 ± 0.1 |
| PLSPPLLPPTTL | 0.706 ± 0.086 |
| SEFDSVSRIVYY | 0.705 ± 0.048 |
| RRSCSMQISSRN | 0.642 ± 0.045 |
| VRGFFTLSGNLI | 0.716 ± 0.072 |
| PKQMVVRRSRRP | 0.695 ± 0.07 |
| DERREADLYPGE | 0.648 ± 0.059 |
| FHMPRSSPFLTG | 0.74 ± 0.054 |
| KKMKVEKGITQK | 0.775 ± 0.068 |
| QFQRTLCGKRWV | 0.685 ± 0.043 |
| ENQGQKQKKKKR | 0.753 ± 0.046 |
| THPRPTLTRCST | 0.734 ± 0.081 |
| KKKKTKPKPKRM | 0.6594 ± 0.0047 |

| Sequence | protein stability index |
| --- | --- |
| PSCDCFLLLAPR | 0.665 ± 0.055 |
| WVNRFVFFSPST | 0.615 ± 0.11 |
| KKKKNHKRKKRN | 0.828 ± 0.041 |
| NFTPRKHARQRP | 0.736 ± 0.0088 |
| KKQNRTRLKKSK | 0.702 ± 0.03 |
| EGRGQRGARAAQ | 0.7181 ± 0.0034 |
| HLPPMLSCTLRS | 0.657 ± 0.046 |
| RACALLIVGAGG | 0.527 ± 0.0085 |
| PYCVTLTLPFSS | 0.7134 ± 0.0047 |
| YLALSAPKERTH | 0.703 ± 0.033 |
| GSLFLRQHTLLR | 0.645 ± 0.0077 |
| NKKIKKDKIKGK | 0.692 ± 0.031 |
| WESWGPDWLCVG | 0.769 ± 0.035 |
| ATVDLDLLSTCL | 0.7 ± 0.02 |
| PPLTPSPPRSFP | 0.651 ± 0.08 |
| RKKKKKEKKKVE | 0.741 ± 0.037 |
| CRRHPLTVVPIL | 0.619 ± 0.028 |
| PRPPRWSSPWPV | 0.719 ± 0.058 |
| RPAMSPPPLCPP | 0.625 ± 0.027 |
| GVWVRGTRRGWG | 0.741 ± 0.2 |
| EREREKGEEEEG | 0.629 ± 0.0079 |
| FSGSSCSSPFCF | 0.632 ± 0.033 |
| RHTYSPRAPVPD | 0.707 ± 0.025 |
| RSPPLEPTLDPL | 0.785 ± 0.1 |
| LVAFNCVVLGKG | 0.686 ± 0.014 |

| Sequence | protein stability index |
| --- | --- |
| YNMGILASQGCG | 0.665 ± 0.046 |
| SLAPLPLIVLFL | 0.487 ± 0.023 |
| CVDAFLVRLVFM | 0.568 ± 0.013 |
| RGSRVDLKLSKK | 0.678 ± 0.019 |
| IHRLPPSLFPLL | 0.776 ± 0.12 |
| NIKITVHSTMDM | 0.698 ± 0.019 |
| SPPPIVPPPSPP | 0.662 ± 0.12 |
| RVVPTKTIAGSA | 0.6502 ± 0.0014 |
| KKETKLKKTEVK | 0.69 ± 0.095 |
| APPPALHPPPPH | 0.688 ± 0.054 |
| AWSALWGAVSPY | 0.7073 ± 0.0027 |
| AFFRPGISRPYG | 0.71 ± 0.0072 |
| RPLTSVTPLPTL | 0.6988 ± 0.0067 |
| TKRIKEERTKKC | 0.65 ± 0.025 |
| KKRHERNYLVQS | 0.662 ± 0.066 |
| QAGGEYGLKVRW | 0.805 ± 0.033 |
| FPVTAPPRPFLF | 0.639 ± 0.014 |
| RVMGDAAGCGGV | 0.707 ± 0.062 |
| RGIEQRHFPKGA | 0.7 ± 0.011 |
| LGRSRYADVQFC | 0.77 ± 0.021 |
| LSTCSFSFFLHT | 0.66 ± 0.019 |

Reference: the supplement of paper PMC10724198
